Results on three molecules are retold here after US20060034860A1 (CELLVIR, published 2006).

Experiment [1] deals with T1, Human AKAP1 (prey026778), A kinase anchor protein 1 (Human, UniProt Q92667 30-903).
T1 construct: Prey fragments (vector pP6) in the primary screen
T1 sequence: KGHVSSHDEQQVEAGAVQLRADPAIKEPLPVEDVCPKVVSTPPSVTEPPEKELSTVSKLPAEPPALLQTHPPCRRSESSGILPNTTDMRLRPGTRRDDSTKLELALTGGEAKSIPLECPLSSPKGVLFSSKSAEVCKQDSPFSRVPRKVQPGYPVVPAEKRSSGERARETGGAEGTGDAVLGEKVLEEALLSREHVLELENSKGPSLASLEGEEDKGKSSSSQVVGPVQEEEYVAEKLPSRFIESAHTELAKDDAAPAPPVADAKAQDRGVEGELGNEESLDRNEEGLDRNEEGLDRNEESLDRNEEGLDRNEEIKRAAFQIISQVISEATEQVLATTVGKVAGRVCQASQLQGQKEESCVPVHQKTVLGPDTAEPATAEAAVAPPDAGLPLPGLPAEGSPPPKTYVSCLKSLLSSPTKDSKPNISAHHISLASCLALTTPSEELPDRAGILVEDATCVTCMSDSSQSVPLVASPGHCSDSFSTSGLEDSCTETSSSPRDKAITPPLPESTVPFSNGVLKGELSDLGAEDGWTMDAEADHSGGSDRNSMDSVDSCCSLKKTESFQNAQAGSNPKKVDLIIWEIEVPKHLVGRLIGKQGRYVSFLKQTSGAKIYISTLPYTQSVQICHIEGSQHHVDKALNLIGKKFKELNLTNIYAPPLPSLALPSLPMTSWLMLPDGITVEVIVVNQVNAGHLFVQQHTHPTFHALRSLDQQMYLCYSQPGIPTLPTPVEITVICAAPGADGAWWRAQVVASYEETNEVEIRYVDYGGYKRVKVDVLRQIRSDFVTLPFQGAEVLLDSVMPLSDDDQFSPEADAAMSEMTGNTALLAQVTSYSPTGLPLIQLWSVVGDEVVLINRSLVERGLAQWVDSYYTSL
Nature of the experiment: yeast two-hybrid screen, bait RT_v1, CEMC7 random primed cDNA prey library; table of bait-prey interactions.

Experiment [2] deals with T2, Human UBE1 (prey030679), prey fragments (Human, UniProt P22314 2-1058).
T2 sequence: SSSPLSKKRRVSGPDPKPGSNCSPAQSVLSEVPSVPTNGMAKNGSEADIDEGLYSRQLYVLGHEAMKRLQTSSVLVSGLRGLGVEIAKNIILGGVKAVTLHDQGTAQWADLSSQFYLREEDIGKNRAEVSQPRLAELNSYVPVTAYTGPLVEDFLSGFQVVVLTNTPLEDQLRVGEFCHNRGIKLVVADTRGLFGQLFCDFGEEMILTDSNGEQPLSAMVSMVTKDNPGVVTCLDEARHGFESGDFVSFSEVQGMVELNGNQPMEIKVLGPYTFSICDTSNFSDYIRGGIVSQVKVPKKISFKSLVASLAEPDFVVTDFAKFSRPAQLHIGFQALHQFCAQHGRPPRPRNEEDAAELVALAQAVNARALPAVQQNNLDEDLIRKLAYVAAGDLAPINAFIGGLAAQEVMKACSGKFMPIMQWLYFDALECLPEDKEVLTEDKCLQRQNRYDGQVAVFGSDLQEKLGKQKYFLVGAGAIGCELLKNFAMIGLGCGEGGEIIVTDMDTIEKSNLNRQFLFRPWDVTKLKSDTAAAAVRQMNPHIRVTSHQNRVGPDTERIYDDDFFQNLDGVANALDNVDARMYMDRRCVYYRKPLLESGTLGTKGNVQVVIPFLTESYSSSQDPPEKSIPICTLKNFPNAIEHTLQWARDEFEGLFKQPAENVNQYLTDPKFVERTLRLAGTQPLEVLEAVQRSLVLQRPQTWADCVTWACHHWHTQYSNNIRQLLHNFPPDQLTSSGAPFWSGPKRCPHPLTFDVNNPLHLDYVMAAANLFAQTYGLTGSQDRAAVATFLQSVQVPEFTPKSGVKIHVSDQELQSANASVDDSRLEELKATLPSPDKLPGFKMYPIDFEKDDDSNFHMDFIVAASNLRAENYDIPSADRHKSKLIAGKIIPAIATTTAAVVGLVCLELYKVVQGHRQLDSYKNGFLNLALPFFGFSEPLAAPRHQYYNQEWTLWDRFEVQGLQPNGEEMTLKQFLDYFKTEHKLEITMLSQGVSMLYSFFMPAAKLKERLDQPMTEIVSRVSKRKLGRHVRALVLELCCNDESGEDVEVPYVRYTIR
Briefly: yeast two-hybrid screen, bait PR_v1 (pB27), CEMC7 oligo dT primed cDNA prey library; table of bait-prey interactions.

For experiment [3], the target named is T3, Casein Kinase 2, beta polypeptide (CSNK2B), prey47239, prey fragments (Human, UniProt P67870 2-215).
T3 construct: also called hCSNK2B; regulatory beta chain of CK2
Briefly: yeast two-hybrid screen, bait PR_v1 (pB27), Human CEMC7 Random Primed prey library; table of bait-prey interactions.

Experiment [4] concerns the target T4, BRCA1 assoc. Prot.1 (BAP1), prey17662 / prey145885, prey fragments (Human, UniProt Q92560 1-729).
T4 construct: also called hBAP1; Ubiquitin Hydrolase
T4 sequence: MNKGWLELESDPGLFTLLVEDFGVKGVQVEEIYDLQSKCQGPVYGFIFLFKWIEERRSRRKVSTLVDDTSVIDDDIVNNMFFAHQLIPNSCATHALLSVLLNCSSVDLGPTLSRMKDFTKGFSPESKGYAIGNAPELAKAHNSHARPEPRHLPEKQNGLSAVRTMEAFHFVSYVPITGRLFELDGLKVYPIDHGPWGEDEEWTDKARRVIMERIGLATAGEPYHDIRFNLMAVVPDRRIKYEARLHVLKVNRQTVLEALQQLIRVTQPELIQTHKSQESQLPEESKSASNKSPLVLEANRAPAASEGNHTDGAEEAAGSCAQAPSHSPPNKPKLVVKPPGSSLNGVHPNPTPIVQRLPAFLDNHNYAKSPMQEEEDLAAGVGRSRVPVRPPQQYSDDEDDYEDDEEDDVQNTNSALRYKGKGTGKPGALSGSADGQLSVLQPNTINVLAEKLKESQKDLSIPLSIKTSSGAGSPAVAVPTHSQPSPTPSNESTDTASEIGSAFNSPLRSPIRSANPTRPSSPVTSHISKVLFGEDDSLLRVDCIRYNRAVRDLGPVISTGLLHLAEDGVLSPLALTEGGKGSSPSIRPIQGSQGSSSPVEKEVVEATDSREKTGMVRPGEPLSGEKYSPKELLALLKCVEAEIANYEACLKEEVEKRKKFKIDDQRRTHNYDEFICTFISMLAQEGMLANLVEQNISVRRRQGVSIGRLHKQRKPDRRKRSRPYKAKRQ
Nature of the experiment: yeast two-hybrid screen, bait NC_v1 (pB6), Human CEMC7 Random Primed prey library; table of bait-prey interactions.

T3 sequence (P67870 2-215 limits assumed): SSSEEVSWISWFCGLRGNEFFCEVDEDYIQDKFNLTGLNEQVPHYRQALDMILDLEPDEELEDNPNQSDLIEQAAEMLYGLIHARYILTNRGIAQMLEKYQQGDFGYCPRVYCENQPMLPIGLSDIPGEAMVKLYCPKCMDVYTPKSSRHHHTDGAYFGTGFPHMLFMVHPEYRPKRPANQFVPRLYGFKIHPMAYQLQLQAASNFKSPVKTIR

B1: HIV-1 reverse transcriptase p66 subunit, bait RT_v1 (enzyme)
chain: not shown
notes: also called p66 RT; HIV-1 p66 RT
As to B1, the binding result in experiment [1] is on record as “binds”.

B2: HIV-1 protease, bait PR_v1 (enzyme)
chain: not shown
Regarding B2, the binding result in experiment [2] and in experiment [3] was “binds” throughout.

B3: HIV-1 Nucleocapsid NCp7, bait NC_v1 (other)
chain: MQRGNFRNQRKTVKCFNCGKEGHIAKNCRAPRKKGCWKCGKEGHQMKDCTERQAN
Turning to B3, the binding result in experiment [4] is “binds”.
